# Numbering of substitutions follows the chain as printed. Entries after “also recorded” stand apart in the source; their conditions may differ.
# B1: QYD3: AAD-like candidate enzyme; 100.00% identical to US20160002662-0002 (AAD13) (protein)
# chain: MSPAFDIAPLDATFGAVVTGVKLADLDDAGWLDLQAAWLEYALLVFPDQHLTREQQIAFARRFGPLEFEMAAISNVRPDGSLRVESDNDDMMKILKGNMGWHADSTYMPVQAKGAVFSAEVVPSVGGQTGFADMRAAYDALDEDLKARVETLQARHSLHYSQSKLGHQTKAADGEYSGYGLHDGPVPLRPLVKIHPETGRKSLLIGRHAHAIPGLEPAESERLLQQLIDFACQPPRIYHHDWAPGDAVLWDNRCLLHQATPWDMTQKRIMWHSRIAGDPASETALAH
# modifications: Synthetic polypeptide, QYD03, D3
# B2: QYD4: AAD-like candidate enzyme; 99.65% identical to US20100251432-0002 (AAD13 mutant) (protein)
# chain: B1 chain with E69A
# modifications: Synthetic polypeptide, QYD04, D4
# B3: QYD75: AAD-like enzyme, SEQ ID NO. 149 (protein)
# chain: MPSFNIAPIDASFGAVVTGIRLATVDDERWRELHQAWLEHALLIFPGQHLSRDEQISFARRFGPLEFDMAAISNVKSDGTLRIEADNDDVVKILKGNMGWHADSTYMSVQAKGAVFSAEVVPAAGGQTGFADMRAAYDALDDGLRTKVETLAAHHSLHYSQAKLGHQPEAGSAYSGYGFHAGPVPLRPLVKTHPETGRKSLLIGRHAHNIPGLDPDESERLLDELVDFACQAPRVYHHSWSAGDVVIWDNRCLLHRATPWDMTQPRVMWHSRIAGDPVAEASLN
# modifications: Synthetic polypeptide, QYD75, D75
# B4: QYD2: AAD-like candidate enzyme; 100.00% identical to US20170009214-0019 (AAD2) (protein)
# chain: MTIAIRQLQTHFVGQVSGLDLRKPLTPGEAREVESAMDKYAVLVFHDQDITDEQQMAFALNFGQREDARGGTVTKEKDYRLQSGLNDVSNLGKDGKPLAKDSRTHLFNLGNCLWHSDSSFRPIPAKFSLLSARVVNPTGGNTEFADMRAAYDALDDETKAEIEDLVCEHSLMYSRGSLGFTEYTDEEKQMFKPVLQRLVRTHPVHRRKSLYLSSHAGKIASMSVPEGRLLLRDLNEHATQPEFVYVHKWKLHDLVMWDNRQTMHRVRRYDQSQPRDMRRATVAGTEPTV
# modifications: Synthetic polypeptide, QYD02, D2
# B5: QYD1: AAD-like candidate enzyme; 100.00% identical to US20170022515-0011 (AAD1) (protein)
# chain: MAHAALSPLSQRFERIAVQPLTGVLGAEITGVDLREPLDDSTWNEILDAFHTYQVIYFPGQAITNEQHIAFSRRFGPVDPVPLLKSIEGYPEVQMIRREANESGRVIGDDWHTDSTFLDAPPAAVVMRAIDVPEHGGDTGFLSMYTAWETLSPTMQATIEGLNVVHSATRVFGSLYQAQNRRFSNTSVKVMDVDAGDRETVHPLVVTHPGSGRKGLYVNQVYCQRIEGMTDAESKPLLQFLYEHATRFDFTCRVRWKKDQVLVWDNLCTMHRAVPDYAGKFRYLTRTTVGGVRPAR
# modifications: Synthetic polypeptide, QYD01, D1
# B6: QYD14: AAD-like candidate enzyme, SEQ ID NO. 27 (protein)
# chain: MTTTKTKSFITIKNKRFHYIWLRENCPSCRYAAPYQQLYDPNISDRPEYPQPLSVELNEETLTIDWDETPAHRSVFSVEWLLKNSYDPQPELESDNYIFWERAKLELKPPQTYNAETINNDGWMEQLFSLGFVILENIPPEKLESFLSSIGPIFNADYGTIMPLETRDKTTESLPSRDGCPLPPHHDLSYWGGHRLVEFLYCVENQNSGGESTLVDGFQVAQDFSQDYPQYYQTLLETPVQFWLVDKTHQYRFCNIATILECDRYGNLTTVRFSKRNCRPHLPFEQLEDFYQAYHTFFHYLKKNDYKHQFQLRSHNCLLFQNFRILHGRTAFDPALGKRKLNSGYVDWNFFVGRRNFQ
# modifications: Synthetic polypeptide, QYD14, D14
# B7: QYD31: AAD-like candidate enzyme, SEQ ID NO. 61 (protein)
# chain: MKVEHLTEATFGSVVTDIDLETIDDAEWRELYDLWIERALLVFPGAFLSAEGQDAFARRFGDLEFSRAALSNIGKDGKVHHENDDEVVKSLRGNEGWHIDSTYMPVQAKGAVFSAEIVPSSGAATGWADMRSAYEELDAETRERLADLTAYHSLYYSQGRAGNLPDEPNEDGTYNLYGYHDMEVSLRPLIKIHPITERPSLLIGRHAHDIVGMDPAESESLLDDLNDWACQPPRTYHHQWDVGDAVLWDNRRLQHRGTPFDMTEPRRMWHTRIAGDPSSELALNHHPDTVPSDDVERHPTGTWAC
# modifications: Synthetic polypeptide, QYD31, D31
# B8: QYD5: AAD-like candidate enzyme, SEQ ID NO. 9 (protein)
# chain: MPFAGELPSAIETQVSKILALIAAYRHRSPNVPDRFAQFVPELEKQLADTVSKKEPVRFVLPAFPFKAPVEGNKRKTLGSLPDKAEEIALKTLDGFADSIAEIYEAGATVVLVSDASVYGDLLNVADAEAFTYHQELQKLASSLGLEHLEFVRPGALAGIAPKDAHTLEEYSDHVNKTRNLLDGPLAQDVNPSEDENVQATSKHYDTALPTTDDPEAFKTAMLKRGKAYAKLIASSSETTIRLSIHESNNVGKITLDLFPPSTNPDFITPWHGAVAVLADASVRIVDASTVDMTKFEVITNAEGRPWLLREKSELFNWFGMELDFEPLFPCGMVVRPRNGYGPYKFEDVNMKQVRRLALSTAPLLLRGFTMEIEKEVFRQKARELGEIQMWPFGDILEVRENADFNMNNVLTREAMPFHYDGVFKTIQDEKTGEWISTPPLFQMFRNRAASQQKGGLTLFSSSRNLIPLLGPDSIPLDELRKLKWKTFTVVNEAFGGHELLLPFIASHPETGADTFRFHEPWPESKCISGSSEPTIVQVVGWPAAESDALCAKLTDLLYDRRVAYRHQWTAGDFIFNDNATTHHTRTAFENGHREHWRVHVS
# modifications: Synthetic polypeptide, QYD05, D5
# Tested on: not listed separately
# Experiment: Chromogenic reaction of degrading herbicides in bacteria: 2,4-D
# Assay type: cell-based, Escherichia coli
# Details: recombinant E. coli expressing the gene, 2,4-D added to the medium; red = phenols
# Procedure: (§1) To transform the plasmids to be tested, an AAD12-expressing plasmid and a blank control plasmid pET15b were respectively transformed into the protein expression E. coli BL21(DE3) strains. A monoclone was selected and inoculated in a 10 ml centrifuge tube with 3 ml LB medium, and cultivated at 37° C., 200 rpm for 6-8 hours. The culture medium was added with 0.1 mM IPTG and 2 mM α-ketoglutaric acid, and then 0.5 mM 2,4-D. The temperature was switched to 28° C. and the cultivation continued overnight. In the next morning, 200 μL of each bacteria solution was taken and centrifuged to precipitate thallus, 180 μL of the supernatant was taken and added in a 96-well plate, and 20 μL of borate buffer of pH 10 was added. Then the mixture was added with 2 μL of 8% potassium ferricyanide and mixed well, followed by adding 2 μL of 2% 4-aminoantipyrine, and placed at room temperature for 5 min to observe the color and detect the A510 value.
# The bacteria solution also appeared red when 2,4-D was directly added into the medium of AAD12-expressing bacteria, as shown in FIG. 1.
# 2,4-D was added into these bacteria solutions of AAD gene-expressing recombinant E. coli and cultivation was continued for color development.
row,Molecule,"Chromogenic reaction of degrading herbicides in bacteria: 2,4-D"
1,B1,Yes
2,B2,Yes
3,B3,Yes
4,B4,Yes
5,B5,Yes

# Same assay, conditions: recombinant E. coli expressing the gene, 2,4-D added to the medium; red = phenols; listed as D75
row,Molecule,"Chromogenic reaction of degrading herbicides in bacteria: 2,4-D"
1,B3,"could degrade 2,4-D; also recorded: capable of degrading 2,4-D"

# Tested on: not given
# Experiment: not given
# Assay type: cell-based, Escherichia coli
# Details: not given
# Procedure: as §1, with “The culture medium was added with 0.1 mM IPTG and 2 mM α-ketoglutaric acid, and then 0.5 mM 2,4-D.” left out, “value. […]” for “value.”
row,Molecule,Chromogenic reaction of degrading herbicides in bacteria: MCPA
1,B3,Yes

# Tested on: Arabidopsis thaliana
# Experiment: Herbicide resistance of transgenic Arabidopsis thaliana seedlings on plate medium (root growth)
# Assay type: in vivo
# Details: Arabidopsis overexpressing the gene
# Procedure: Expression in Arabidopsis thaliana was regulated by its AtUbi10 Arabidopsis thaliana ubiquitin promoter and the MAS (mannopine synthase) terminator. Hygromycin resistance gene (HygR=hpt) served as the selection marker.
# Preparation of Agrobacterium infection solution: An activated Agrobacterium (GV3101) monoclone was picked and inoculated in 30 ml YEP liquid medium [yeast powder 10 g/L, tryptone 10 g/L, NaCl 5 g/L, 25 mg/L Rifampicin and 50 mg/L Kanamycin], shaking-cultured at 200 rmp/min, 28° C. overnight until the OD600 was about 1.0-1.5, then centrifuged at 6000 rmp/min for 10 min to collect the bacteria, and the supernatant was discarded. Arabidopsis thaliana infection solution (sucrose 50 g/L, Silwet L-77 300 μL/L, no need to adjust pH) was used to resuspend the cells to OD600=0.8 for later use.
# Genetic transformation of Arabidopsis thaliana by flower dipping: Before transformation of Arabidopsis thaliana plants, attentions were paid to whether the plants were growing well, the inflorescences were abundant, and no stress response occurred. The first transformation was performed when plants were about 20 cm high. Plants could be properly watered if the soil was dry. The grown siliques were cut off with scissors the day before transformation. The inflorescences of the plants to be transformed were soaked in the above-mentioned Agrobacterium solution for 30 seconds to 1 minute, which was stirred gently during the period. And a layer of liquid film should appear on the infiltrated plant. The transformed plants were cultured in a dark environment for 24 hours, and then taken out and grown in a normal light environment. A second transformation could be performed in the same way a week later.
# Seeds were treated with disinfectant for 5 min, washed with sterile water for 5 times and then one part was spread on MS transgenic screening medium (containing 30 μg/mL hygromycin, 100 μg/mL carbenicillin) to screen transgenic seedlings, and the other part was spread on MS medicated medium [containing 250 μg/mL Cefotaxime sodium and 0.3 μM 2,4-D] to screen herbicide-resistant seedlings at mean time. The petri dish spread with seeds was placed at 4° C. for vernalization for 3 days, and taken out to a illumination incubator for cultivation (temperature of 22° C., 16 hours of light, 8 hours of darkness, light intensity of 100-150 μmol/m^2/s, humidity of 75%). After one week, it was observed that the roots of the wild-type control seedlings were not elongated and their growth was inhibited, while the transgenic seedlings had normal root growth, showing drug resistance. The transgenic positive seedlings and herbicide-resistant seedlings were photographed and transplanted into small pots filled with soil for cultivation.
# The transgenic lines with the nine vectors, pQY2309, pQY2310, pQY2311, pQY2312, pQY2313, pQY2314, pQY2315, pQY2316 and pQY2317, overexpressing AAD gene in the T2 generation were further tested on plate medium for their resistance to 2,4-D, 2,4-DB sodium and MCPA herbicide. Two events were tested for each transformant.
row,Molecule,"Resistance of transgenic Arabidopsis thaliana: 2,4-D"
1,B6,Yes
2,B1,Yes
3,B2,Yes
4,B7,Yes
5,B4,Yes
6,B8,Yes
7,B5,Yes
